What was measured:
[1] = target: T1, recombinant LILRB1 (Homo sapiens, UniProt Q8NHL6); test: BLI
[2] = target: T1, recombinant LILRB1; test: BLI + ELISA
[3] = target: T1, recombinant LILRB1; test: ELISA

T1 sequence (Q8NHL6 24-461): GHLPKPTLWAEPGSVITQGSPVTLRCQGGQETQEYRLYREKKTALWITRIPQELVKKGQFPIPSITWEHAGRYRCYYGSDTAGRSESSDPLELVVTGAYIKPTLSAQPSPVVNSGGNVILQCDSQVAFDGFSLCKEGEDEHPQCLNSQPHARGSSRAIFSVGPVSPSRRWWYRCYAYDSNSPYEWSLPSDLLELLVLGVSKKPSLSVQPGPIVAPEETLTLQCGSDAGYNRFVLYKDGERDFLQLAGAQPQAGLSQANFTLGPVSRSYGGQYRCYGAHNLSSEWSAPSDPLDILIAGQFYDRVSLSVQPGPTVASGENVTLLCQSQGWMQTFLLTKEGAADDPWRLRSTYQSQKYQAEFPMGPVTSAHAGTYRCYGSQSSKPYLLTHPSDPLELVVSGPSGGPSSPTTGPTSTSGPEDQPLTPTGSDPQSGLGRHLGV

binding result [2]	binding result [3]	Binder	further results
		rabbit anti-LILRB1 monoclonal antibody B1-176 (antibody, V domains shown) VH: QSLEESEGGLVKPGGTLTLTCTASGFSFSSSYCMCWVRQAPGKGLELIACIYTDSSGATYYASWAKGRFTISKSSSTTITLQMTSLTAADTATYFCARGWDYEDPGYTDTTYFSLWGPGTLVTVSS VL: ELDLTQTPSSVEAAVGGTVTIKCQASQTIYTNLAWYQQKPGQPPNLLIYAASTLASGVSSRFKGSGSGTEFTLTISDLECADAATYYCQSYYGSSTTGNGFGGGTEVEIK	Kd [1]: ~0.01 nM
binds		humanized anti-LILRB1 antibody Hu B1-176-N297A (antibody, V domains shown) VH: EVQLVESGGGLVQPGGSLRLSCAASGFSFSSSYCMCWVRQAPGKGLELVSCIYTDSSGATYYASWAKGRFTISRHNSKNTLYLQMNSLRAEDTAVYYCARGWDYEDPGYTDTTYFSLWGRGTLVTVSS VL: DIQLTQSPSFLSASVGDRVTITCQASQTIYTNLAWYQQKPGKAPKLLIYAASTLASGVPSRFSGSGSGTEFTLTISSLQPEDFATYYCQSYYGSSTTGNGFGGGTKVEIK	
binds		humanized anti-LILRB1 antibody Hu B1-176-LALAPG (antibody, V domains shown) VH: EVQLVESGGGLVQPGGSLRLSCAASGFSFSSSYCMCWVRQAPGKGLELVSCIYTDSSGATYYASWAKGRFTISRHNSKNTLYLQMNSLRAEDTAVYYCARGWDYEDPGYTDTTYFSLWGRGTLVTVSS VL: DIQLTQSPSFLSASVGDRVTITCQASQTIYTNLAWYQQKPGKAPKLLIYAASTLASGVPSRFSGSGSGTEFTLTISSLQPEDFATYYCQSYYGSSTTGNGFGGGTKVEIK	
	binds	humanized B1-176 with heavy chain Hu-176 VH-1 and light chain Hu-176 VL (antibody, V domains shown) VH: EVQLVESGGGLVQPGGSLRLSCAASGFSFSSSYCMCWVRQAPGKGLEWVSCIYTDSSGATYYASWAKGRFTISRHNSKNTLYLQMNSLRAEDTAVYYCARGWDYEDPGYTDTTYFSLWGRGTLVTVSS VL: DIQLTQSPSFLSASVGDRVTITCQASQTIYTNLAWYQQKPGKAPKLLIYAASTLASGVPSRFSGSGSGTEFTLTISSLQPEDFATYYCQSYYGSSTTGNGFGGGTKVEIK	
	binds	humanized B1-176 with heavy chain Hu-176 VH-2 (W48L), as tested in Figure 3B (antibody, V domains shown) VH: EVQLVESGGGLVQPGGSLRLSCAASGFSFSSSYCMCWVRQAPGKGLELVSCIYTDSSGATYYASWAKGRFTISRHNSKNTLYLQMNSLRAEDTAVYYCARGWDYEDPGYTDTTYFSLWGRGTLVTVSS VL: DIQLTQSPSFLSASVGDRVTITCQASQTIYTNLAWYQQKPGKAPKLLIYAASTLASGVPSRFSGSGSGTEFTLTISSLQPEDFATYYCQSYYGSSTTGNGFGGGTKVEIK	
